Test results from a protein production outcome set (Wang et al. 2014).

Experiment: label from the status in PepcDB records

Q: Which protein production does the source give for “MAFIESWAKRTWLVPPQMQLYVDYKIKVTEILTNYTSIEEIHSYSIDESFLDITESLNFFYPDIRNRYEQMNLITLDLQREILDKLGLYVTVGMGDNPLLAKLAMDNYAKHNQNMRALIRYLEHHHHHH” here?
A: failed

Q: With “MAFIIDLLLLCCSAFMSSCEVAYFSLKPIDLQNIRERNHSSDIALSNLLDNSNQLLATILIGNNVINVAIVILSNYAIEQTFVFSSPIIGFLIQTILLTTVLLLFGEILPKVYARKNPLQYSRFSAAAMSVIYKILSPFSKLLVKSTGIVTRGISKKKYDMSVDELSKAVALTTTEGEPEEKEMINEIIKFYNKTACEIMVPRIDIVDVDLSWPFRKMLDFVVSSGYSRLPVSEGSEDNIKGVIYIKDLIPHMDKGDEFDWHPLIRKAYFVPENKRIDDLLEEFRANKVHVSIVVDEFGGTCGLITMEDILEEIVGEITDEYDEEELPFKVLGDGSYLFEGKTSLSDVRHYLDLPENAFGELGDEVDTLSGLFLEIKQELPHVGDTAVYEPFRFQVTQMDKRRIIEIKIFPFERTWEVE” as the sequence, how does the protein production read?
A: failed

Q: For “MAFITGAARGQGRSHAVRLAAEGADIIACDICAPVSASVTYAPASPEDLDETARLVEDQGRKALTRVLDVRDDAALRELVADGMEQFGRLDVVVANAGVLSWGRVWELTDEQWDTVIGVNLTGTWRTLRATVPAMIEAGNGGSIVVVSSSAGLKATPGNGHYSASKHGLTALTNTLAIELGEYGIRVNSIHPYSVETPMIEPEAMMEIFARHPSFVHSFPPMPVQPNGFMTADEVADVVAWLAGDGSGTLTGTQIPVDKGALKY”, which protein production is on record?
A: failed

Q: With “MAFLDKIKSAVIAEWHTHKILPSLTAAQAILESGWGKYAPHNALFGIKADSSWTGKSFNTKTQEEYQPGIVTDIVDRFRAYDSWEDSIADHGQFLVDNPRYKAVIGEADYKKACHAIKDAGYATASGYAELLIQLIEENNLQEWDAEAIKNKEEQMISSQCREVIEFFINLANAGVGVDKDSFAGWQCADVPCYAAKHWFGVDLWGNAIDLLDSAAAVGWEVHRMPTDANPRTGAFFVQSVPCHQFGHTGIVIEDSDGYTMRTVEQNIDGNPDALYVGAPARFNTRDFTGVLGWFYPPYQGDIVTQPVSTEPQNSDTIVETPKTGTFTLDVAEINIRRWPSLASEVVGSYKQGDTVSFDSEGYANGYYWISYVGGLGMRNYLAIGQTDKDGNRISIWGKLN” as the sequence, how does the protein production read?
A: failed

Q: With “MAFSDDLPPPPRVNDHVKTRRNRKRRTIKTKQLEELISTATRAAHVARDKGFYIVSPEAIQCVEILRHMRTLPLNARLITKTDGLRVLLFLSKNGNPKIRSESKAVIDHWKSILHTKVH” as the sequence, how does the protein production read?
A: failed

Q: For “MAFSGSQAPYLSPAVPFSGTIQGGLQDGLQITVNGTVLSSSGTRFAVNFQTGFSGNDIAFHFNPRFEDGGYVVCNTRQNGSWGPEERKTHMPFQKGMPFDLCFLVQSSDFKVMVNGILFVQYFHRVPFHRVDTISVNGSVQLSYISFQNPRTVPVQPAFSTVPFSQPVCFPPRPRGRRQKPPGVWPANPAPITQTVIHTVQSAPGQMFSTPAIPPMMYPHPAYPMPFITTILGGLYPSKSILLSGTVLPSAQRFHINLCSGNHIAFHLNPRFDENAVVRNTQIDNSWGSEERSLPRKMPFVRGQSFSVWILCEAHCLKVAVDGQHLFEYYHRLRNLPTINRLEVGGDIQLTHVQT”, which protein production is on record?
A: not failed

Q: With “MAFSTDDTLWREFLQVWPLERLREMTLAEYTTAGDKDCFVYWLEFRLVDYGSIAGGSAFKFAIFSRKETGAREGDTSLAYDDRYGWYRRFGTSPEEAFQTIRGHVVAVAEAARDGRLDEIDNSPLGAAYRWKIAFHYQPLRNPSTPCVYVRKPLLHFLGLSAADTTTPQSELYQALARLRQADESIFVFSERLWKDWVADTPFVVKLSEGAIKHGYLPVNLISAPFPETMYGGKTPNEAADVAHFRTDTGLEFDTDLRVSSPGSARLRHRLGGYFEDIGAAAGDLITLTQDGDGTYLLSSKLAVHAIGPTASAATITARASVKEAAAVRPPLNQILFGPPGTGKTYEAIEKALEILDPSFLLQLGDDESNERRRALKRRYDELAKEGLVQFVTFHQSFSYENFVEGLSASSDPDTKQVRYEVEDGVFKELCESARTRLVRRSDDAPLELSGRRIWKLSLGDSITEGHIFEECMEKGLALMGFGNNADFSQCQSREDIQKMFAASGEPLSLGAYPITAIKTFVCQMKLGDLIVVSEGNLKFRAIGEITGDYQLLPRDSDTYSQARPVRWLRGYKPALPYGALMENRFSQMTVYELRAGSIDHDKFRELLKSECIATGADRPHVLIIDEINRGNVSRIFGELITLIEPSKRSGAAEALEVLLPYSKDPFSVPDNVYLIGTMNTADRSLAGLDIALRRRFDFVEMAPRPDKLTGVKVAEIDISAVLETMNRRIEVLLDREHRLGHAYFMSLENSNDLSRLSNIFRQQIIPLLQEYFFEDWQRIAWILNDHRKDERFRFIVPAPYSVDSLFGDTGQVAQDSKAWRMNEEAFHKPQSYLGIVGDGKV” as the sequence, how does the protein production read?
A: failed

Q: For “MAFTPFPPRQPTASARLPLTLMTLDDWALATITGADSEKYMQGQVTADVSQMAEDQHLLAAHCDAKGKMWSNLRLFRDGDGFAWIERRSVREPQLTELKKYAVFSKVTIAPDDERVLLGVAGFQARAALANLFSELPSKEKQVVKEGATTLLWFEHPAERFLIVTDEATANMLTDKLRGEAELNNSQQWLALNIEAGFPVIDAANSGQFIPQATNLQALGGISFKKGCYTGQEMVARAKFRGANKRALWLLAGSASRLPEAGEDLELKMGENWRRTGTVLAAVKLEDGQVVVQVVMNNDMEPDSIFRVRDDANTLHIEPLPYSLEE”, which protein production is on record?
A: not failed

Q: With “MAFVRYIPCRKIPRNVDQFELPCLGSLRAFFSTQKLIGDEPVLVRDFIHTALYDPIQGYFSQRSKSVGVLERSIKFNQLEGRKAYMKLLEKVYKQSDISWFTPVELFKPWYAHGIAEAILRTTNLSVPLKGVLDYIMLNAPERIYKNMSYTSIEISPSLAKIQKETVAQVGSHLSKFRVECRDASDLAGWSKVLFVQHKADSGFQFPVAMLEFENVEQQPCWVIMLEVLDNLPHDLVYSKSQLSPWMEVLVENKPESEALSELYKPLEDPLIKRCIEIVEHEDDPKLLEVLHAKLPKMSLIASDFSFLPDVKVPGERAPLVSTKKDGCSSDYSSYLDAKGDADIFFPTDFWLLERMDHYCSGWRKMEKDGTPSKKGRKRRTLTVNQDSL” as the sequence, how does the protein production read?
A: failed

Q: Which protein production does the source give for “MAGAMIEARGLVKRFVSGRIRRRVVEALKGVSFSVYEGEIYSFLGPNGAGKTTTVRILSTLLDPDGGEARVAGFDVVKERWEVRKRIGVMLSVERGFYWKLTGRENLYYFGRIYGIPQGELKSRIKEVLDLVGLTDLGGADKPFEEMSLGMKARLGLARVLLKDPEVLILDEPTLGLDPASARTIRGVIRSLASEGRTIFITTHNMVEAEMISDRVGIIIGGRIAMEGTPDELKRRVFSSINLEFRVKASGHAAKKFFYDVKGEYGNRIVGGVTFSDGILTFRVSVNRDEPAEPIIDRITRLAYQYRFKILEIKALEPSLEDVFVAVSESGEARSGRVKGSIAQRLEHHHHHH” here?
A: not failed

Q: With “MAGEQIKPVASGLLVLNFCMYVIVLGIGGWAMNRAIDHGFEVGPNLELPAHFSPIYFPMGNAATGFFVIFALLAGVVGAASTISGLSHIRSWTVGSLPAAATAATIAWTLTVLAMGFAWKEIELQGRNAKLRTMEAFLIILSVTQLIYIAAVHGVRRP” as the sequence, how does the protein production read?
A: failed

Q: Which protein production does the source give for “MAGFISNFFGVGDSDSQYEEPTEASQAAAPTESATNTRSTPKVVPMQGGKSVNSKIALFEPKIYSDVKEIATQLLKNQAVIINFDHVDDEMARRIVDFLTGTVFAINGEIERIGDEIFLCIPENYEVSGSTTSQFDTSKLLEHHHHHH” here?
A: not failed

Q: For “MAGFPELVVLDPPWDKELAAGTESQALVSATPREDFRVRCTSKRAVTEMLQLCGRFVQKLGDALPEEIREPALRDAQWTFESAVQENISINGQAWQEASDNCFMDSDIKVLEDQFDEIIVDIATKRKQYPRKILECVIKTIKAKQEILKQYHPVVHPLDLKYDPDPAPHMENLKCRGETVAKEISEAMKSLPALIEQGEGFSQVLRMQPVIHLQRIHQEVFSSCHRKPDAKPENFITQIETTPTETASRKTSDVVLKRKQTKDCPQRKWYPLRPKKINLDT”, which protein production is on record?
A: failed

Q: With “MAGFSSLIPRTLLKRAVSSATRNLTAPLASISAARNLFIGGGCDENYGEPGVFSHSNGIRKYNTVGNAGALTGPFHHLLGVNQTNKPAFLRVQSMSYQFVADSHSSPKRIVKNEDEEDFSDSSKKGNAENPRKHQIGENIPKKDKIKFLVNTLLDIEDNKEAVYGALDAWVAWERNFPIASLKIVIASLEKEHQWHRMVQVIKWILSKGQGNTMGTYGQLIRALDMDRRAEEAHVIWRKKVGNDLHSVPWQLCLQMMRIYFRNNMLQELVKLFKDLESYDRKPPDKHIVQTVADAYELLGMLDEKERVVTKYSHLLLGTPSDDKPSRSSRKKKKPELRIPEATTEGAVDAAKAEIQEERKENLDNHQESEAATEKQFEHGA” as the sequence, how does the protein production read?
A: failed

Q: For “MAGGVDGPIGIPFPDHSSDILSGLNEQRTQGLLCDVVILVEGREFPTHRSVLAACSQYFKKLFTSGAVVDQQNVYEIDFVSAEALTALMDFAYTATLTVSTANVGDILSAARLLEIPAVSHVCADLLDRQIL”, which protein production is on record?
A: failed

Q: With “MAGHSHWAQIKHKKAKVDAQRGKLFSKLIREIIVATRLGGPNPEFNPRLRTAIEQAKKANMPWENIERAIKKGAGELEGEQFEEVIYEGYAPGGVAVMVLATTDNRNRTTSEVRHVFTKHGGNLGASGCVSYLFERKGYIEVPAKEVSEEELLEKAIEVGAEDVQPGEEVHIIYTVPEELYEVKENLEKLGVPIEKAQITWKPISTVQINDEETAQKVIKLLNALEELDDVQQVIANFEIPEEILQKVG” as the sequence, how does the protein production read?
A: not failed

Q: Which protein production does the source give for “MAGIKVFGHPASTSTRRVLIALHEKNLDFELVHVELKDGEHKKEPFLSRNPFGQVPAFEDGDLKLFESRAITQYIAHRYENQGTNLLPADSKNIAQYAIMSIGIQVEAHQFDPVASKLAWEQVFKFNYGLNTDQAVVAEEEAKLAKVLDVYEARLKEFKYLAGETFTLTDLHHIPVIQYLLGTPTKKLFTERPRVNEWVAEITKRPASEKVL” here?
A: failed

Q: For “MAGQSDRKAALLDQVARVGKALANGRRLQILDLLAQGERAVEAIATATGMNLTTASANLQALKSGGLVEARREGTRQYYRIAGEDVARLFALVQVVADEHLADVAVAAADVLGSPEDAITRAELLRRREAGEVTLVDVRPHEEYQAGHIPGAINIPIAELADRLAELAGDRDIVAYCRGAYCVMAPDAVRIARDAGREVKRLDDGMLEWRLAGLPVDEGAPVGHGD”, which protein production is on record?
A: failed

Q: For “MAGRRRWSTEQILDAAAELLLAGDAETFSVRKLAASLGTDSSSLYRHFRNKTELLRAVADRILLSAMDGYRPEGDWKQRLTAVALRLRESFGQQPQLAAVWGRHGSGGTGSRLMMEEVLQALRASGLPDDEIPARYHRLVILISSLITAEGGFGAVGAQEHEQGMEQFRVAVLGADPERFPALSHFAREIRPLGADRGAAFEEILAAHLAHLEAAAP”, which protein production is on record?
A: not failed

Q: With “MAGTTQGAKTLYDKLWDDHLVSQRDDGSCLIYIDRHLLHEVTSPQAFEGLQLAGRQPWRLNANIATPDHNVPTSKKEREQGIAGIEDDTSRIQVQTLDDNCKTFNIVEFGINDIRQGIVHVVGPEQGLTLPGMTVVCGDSHTATHGAFGCLAHGIGTSEVEHVLATQCLIQKKSKNMLIRVDGQLGKGVTPKDVVLAIIGKIGTAGGTGYAIEFGGQVFRDMSIEGRMTVCNMAIEAGARVGMVAVDDKTIEYVQSRHYAPKGEQWDQAVAYWNTLHSDDDAVFDEVVVLNGAEIEPQVSWGTSPEMVIPVSQAVPTLEQAKDDVQRNDWTRAYQYMGLTAGQALADIQLDRVFIGSCTNSRIEDIRAAAEVVKGRKVASSIKQAMIVPGSGLVKQQAEQEGLDQVFLEAGFEWREPGCSMCLAMNSDKLQPGEHCASTSNRNFEGRQGNGGRTHLVSPAMAAAAAIAGHFVDVRSF” as the sequence, how does the protein production read?
A: failed

Q: With “MAGVCGSKLMMARLVGMPDLFSDSGWGSGELPRALRPGLVHLPRWMGLDQQFAVVQQCREIARSVAGTPLAMHRQQWASGTMSAYLMSLGLHWEYRTYQYVSQWGGVAVPPIPVEFSALAHEVLRAAAGVDDSLAAWVDSYRIDAALVNYYPPGAGMGMHQDAFEDSRAPVVSLSIGDSAVFRAGNGVNRQRPWQDVVLGSGDAVVFGGPSRDMFHSVVRLHAGTAPTRCGVSQGRINLTFRQVKL” as the sequence, how does the protein production read?
A: failed
